Test results taken from patent publication US20230380451A1, “MEANS AND METHODS TO DETOXIFY MYCOTOXINS” (priority 2020, published 2023).
Like-named read-outs stand apart in the source and are kept apart here.

Legend:
[1] = Storage stability at different pH values, residual DON transformation activity; type: biochemical; details: for Relative DON-transformation activity: storage at 30° C.
Protocol: (§1) To determine the transformation of DON to epi-THS by Akr I-III, described herein, the following assay was performed. An assay buffer was prepared containing 40 ppm DON, 1 mM NADPH in Teorell Stenhagen (TS) buffer, pH 6.0 (Östling and Virtama, Acta Physiologica Scandinavica, 1946, 11:4, 289-293). Tubes containing the assay buffer were transferred in a heating block at 30° C. The reaction was started by addition of Akr I-III to a final concentration of 200 nM in a final reaction volume of 200 μL. Samples were taken before reaction start, and 2, 5, 10, 15 and 20 min after reaction start. DON transformation reactions in these samples were stopped by mixing with absolute methanol at a 1:2 ratio, followed by a 1:100 dilution with 40% methanol. The concentrations of DON and epi-THS in the samples were determined with liquid chromatography-mass spectrometry (LC-MS) on a Sciex 5500 triple quadrupole mass spectrometer coupled to Agilent 1290 series UHPLC system, using the following MS parameters: Acquisition duration: 4 min; Scan Type: MRM (MRM); Polarity: Negative; Ion Source: Turbo Spray.
The storage stability of Akr I-III at different pH values was tested by incubating 1 μM enzyme in TS buffer solutions with a pH of 3.0-10.0 for 4 h at 30° C. in standard 1.5 ml Eppendorf tubes. Every hour, a DON transformation assay was conducted as described in Example 3. The starting activity at time 0 min was set to 100% and the relative residual activities were determined throughout the incubation. For the DON transformation assays, 80 μl of the storage solution were added to an assay reaction with a final volume of 400 μl, which corresponds to a 1:5 dilution of the storage solution. Akr I retained more than 93% activity during 4 hours at 30° C. from pH 4.0-10.0. Akr II retained 30% to 93% activity during 4 hours at 30° C. from pH […] retained 27% to 85% activity during 4 hours at 30° C. from pH 4.0-9.0. Akr I-III retained more than 40% of their activity for 4 hours at 30° C. from pH 4.0 to pH 8.0.

[2] = type: biochemical
Protocol: as §1
For LC, eluent A was 5% methanol, 94.9% water (ultrapure), 0.1% acetic acid, and eluent B was 99.9% methanol, 0.1% acetic acid, using a Phenomenex Kinetex 2.6 μm biphenyl 150×2.1 mm column, an injection volume of 1 μL and the protocol shown in Table 3.
By applying the DON transformation assay basically as described in Example 3, but at pH values ranging from pH 2 to pH 10, the pH optima for DON degradation of Akr I-III (SEQ ID NOs: 1-3) were determined. Akr I and Akr II reached maximum activities at pH 6.0, Akr III at pH 6.5.
By applying the DON transformation assay basically as described in Example 3, but at different temperatures ranging from 14.9° C. to 55.7° C., the temperature optima for the DON degradation activities of Akr I-III were determined. Akr I maximum activity was shown at approximately 35° C., Akr II at approximately 31° C., and Akr III at temperatures from approximately 28° C. to 33° C. (see FIG. 4). […] For Akr I even at temperatures below 20° C.

B1: Akr I: artificial amino acid sequence, variant of a wild type aldo-keto reductase (protein)
chain: MRTTEISQGLKVSNLCIGAGPLGGMPTAFGYDVSEERGIATVQAVFDSPINFMDTSSEYGDSEVRIGKVIREGRMPKGFVIATKADAEGDGTARRGDFSAKQVRASFELSLERLGLTHIDVYFLHDPEKFPFEHVMARGGAMEELLRLKDEGLVGLVGVAGGDVVEMARYVDTGNLDILLNYGRYTLLDRSADSLIDKASDAGMAFLNAGPYASGLLAAPRGGSAWYQYAPPNADALQAVDQLHELCESFDVSLRSVALQFSMRDPRITSTVVGLSRPERVRALLDDAAAEIPAELWDQLPAPLNLPWNSLA
modifications: ArkI
With B1 the retained activity ([1]; during 4 hours at 30° C. from pH 4.0-10.0) was “more than 93%”, the “Relative DON-transformation activity” value ([1]; pH 3.0, 0 h (starting activity set to 100%)) was 100.0% and the “Relative DON-transformation activity” value ([1]; pH 3.0, 1 h) was 0.0%. The “Relative DON-transformation activity” value ([1]; pH 3.0, 2 h) was 0.0%, the “Relative DON-transformation activity” value ([1]; pH 3.0, 3 h) was 0.0% and the “Relative DON-transformation activity” value ([1]; pH 3.0, 4 h) was 0.0%. The “Relative DON-transformation activity” value ([1]; pH 4.0, 0 h (starting activity set to 100%)) was 100.0%, the “Relative DON-transformation activity” value ([1]; pH 4.0, 1 h) was 100.6% and the “Relative DON-transformation activity” value ([1]; pH 4.0, 2 h) was 102.8%. For the same molecule, the “Relative DON-transformation activity” value ([1]; pH 4.0, 3 h) was 101.5%, the “Relative DON-transformation activity” value ([1]; pH 4.0, 4 h) was 93.8% and the “Relative DON-transformation activity” value ([1]; pH 5.0, 0 h (starting activity set to 100%)) was 100.0%. For the same molecule, the “Relative DON-transformation activity” value ([1]; pH 5.0, 1 h) was 101.0%, the “Relative DON-transformation activity” value ([1]; pH 5.0, 2 h) was 101.6% and the “Relative DON-transformation activity” value ([1]; pH 5.0, 3 h) was 100.8%. The “Relative DON-transformation activity” value ([1]; pH 5.0, 4 h) was 97.9%, the “Relative DON-transformation activity” value ([1]; pH 6.0, 0 h (starting activity set to 100%)) was 100.0% and the “Relative DON-transformation activity” value ([1]; pH 6.0, 1 h) was 100.6%. For the same molecule, the “Relative DON-transformation activity” value ([1]; pH 6.0, 2 h) was 101.9%, the “Relative DON-transformation activity” value ([1]; pH 6.0, 3 h) was 101.1% and the “Relative DON-transformation activity” value ([1]; pH 6.0, 4 h) was 100.7%. For the same molecule, the “Relative DON-transformation activity” value ([1]; pH 7.0.0, 0 h (starting activity set to 100%)) was 100.0%, the “Relative DON-transformation activity” value ([1]; pH 7.0.0, 1 h) was 99.6% and the “Relative DON-transformation activity” value ([1]; pH 7.0.0, 2 h) was 101.4%. The “Relative DON-transformation activity” value ([1]; pH 7.0.0, 3 h) was 99.7%, the “Relative DON-transformation activity” value ([1]; pH 7.0.0, 4 h) was 96.1% and the “Relative DON-transformation activity” value ([1]; pH 8.0, 0 h (starting activity set to 100%)) was 100.0%. For the same molecule, the “Relative DON-transformation activity” value ([1]; pH 8.0, 1 h) was 101.5%, the “Relative DON-transformation activity” value ([1]; pH 8.0, 2 h) was 102.4% and the “Relative DON-transformation activity” value ([1]; pH 8.0, 3 h) was 101.1%. For the same molecule, the “Relative DON-transformation activity” value ([1]; pH 8.0, 4 h) was 101.2%, the “Relative DON-transformation activity” value ([1]; pH 9.0.0, 0 h (starting activity set to 100%)) was 100.0% and the “Relative DON-transformation activity” value ([1]; pH 9.0.0, 1 h) was 100.9%. For the same molecule, the “Relative DON-transformation activity” value ([1]; pH 9.0.0, 2 h) was 101.0%, the “Relative DON-transformation activity” value ([1]; pH 9.0.0, 3 h) was 100.8% and the “Relative DON-transformation activity” value ([1]; pH 9.0.0, 4 h) was 96.6%. For the same molecule, the “Relative DON-transformation activity” value ([1]; pH 10.0, 0 h (starting activity set to 100%)) was 100.0%, the “Relative DON-transformation activity” value ([1]; pH 10.0, 1 h) was 100.5% and the “Relative DON-transformation activity” value ([1]; pH 10.0, 2 h) was 101.4%. The “Relative DON-transformation activity” value ([1]; pH 10.0, 3 h) was 99.8%, the “Relative DON-transformation activity” value ([1]; pH 10.0, 4 h) was 96.0% and the “temperature of maximum DON degradation activity (temperature optimum)” value ([2]; 14.9° C. to 55.7° C. tested) was “approximately 35 °C”. For the same molecule, the DON degradation ([2]; 14.9° C., after 20 min of incubation) was “complete DON degradation”, the “pH of maximum DON degradation activity (pH optimum)” value ([2]; pH 2 to pH 10 tested, 30° C.) was 6.0 and the DON degradation ([2]; pH 4.0, after 30 min) was “complete degradation”.
